Target: V1 (A3B3DF), the soluble subcomplex of TtATPase without peripheral stalks (Thermus thermophilus strain HB8) (UniProt Q56403)
Assay: native MS

Sequence of V1 (A3B3DF), the soluble subcomplex of TtATPase without peripheral stalks (Thermus thermophilus strain HB8) (Q56403 whole entry, chain 1 of 4): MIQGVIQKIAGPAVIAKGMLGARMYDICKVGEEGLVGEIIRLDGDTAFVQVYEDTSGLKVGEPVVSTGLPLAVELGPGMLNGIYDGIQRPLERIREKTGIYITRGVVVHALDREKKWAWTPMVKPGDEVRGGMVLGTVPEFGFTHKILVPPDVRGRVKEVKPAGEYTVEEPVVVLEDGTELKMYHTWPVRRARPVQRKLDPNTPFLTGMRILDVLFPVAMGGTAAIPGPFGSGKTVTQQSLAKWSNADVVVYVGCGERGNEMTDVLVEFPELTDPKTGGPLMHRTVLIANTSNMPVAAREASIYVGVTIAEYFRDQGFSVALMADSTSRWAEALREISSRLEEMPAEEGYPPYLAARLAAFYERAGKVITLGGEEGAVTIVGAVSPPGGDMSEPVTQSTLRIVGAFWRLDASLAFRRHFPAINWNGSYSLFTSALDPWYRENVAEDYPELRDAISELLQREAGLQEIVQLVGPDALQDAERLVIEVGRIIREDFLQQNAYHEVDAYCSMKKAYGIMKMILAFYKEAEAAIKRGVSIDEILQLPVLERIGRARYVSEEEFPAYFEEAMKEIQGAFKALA
Sequence of V1 (A3B3DF), the soluble subcomplex of TtATPase without peripheral stalks (Thermus thermophilus strain HB8) (Q56404 whole entry, chain 2 of 4, further chain): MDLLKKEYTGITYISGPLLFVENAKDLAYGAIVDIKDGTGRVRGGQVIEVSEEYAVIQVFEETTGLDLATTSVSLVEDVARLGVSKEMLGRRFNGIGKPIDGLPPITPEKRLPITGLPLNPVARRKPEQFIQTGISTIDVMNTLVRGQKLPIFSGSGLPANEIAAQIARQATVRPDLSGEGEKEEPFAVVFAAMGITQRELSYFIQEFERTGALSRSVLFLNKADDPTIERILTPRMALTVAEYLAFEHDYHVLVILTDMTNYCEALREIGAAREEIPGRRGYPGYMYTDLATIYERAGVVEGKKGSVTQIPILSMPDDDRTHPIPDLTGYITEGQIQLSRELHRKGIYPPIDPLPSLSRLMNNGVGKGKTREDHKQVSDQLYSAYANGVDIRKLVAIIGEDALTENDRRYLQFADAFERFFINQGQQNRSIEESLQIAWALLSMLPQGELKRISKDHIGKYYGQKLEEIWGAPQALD
Sequence of V1 (A3B3DF), the soluble subcomplex of TtATPase without peripheral stalks (Thermus thermophilus strain HB8) (O87880 whole entry, chain 3 of 4, further chain): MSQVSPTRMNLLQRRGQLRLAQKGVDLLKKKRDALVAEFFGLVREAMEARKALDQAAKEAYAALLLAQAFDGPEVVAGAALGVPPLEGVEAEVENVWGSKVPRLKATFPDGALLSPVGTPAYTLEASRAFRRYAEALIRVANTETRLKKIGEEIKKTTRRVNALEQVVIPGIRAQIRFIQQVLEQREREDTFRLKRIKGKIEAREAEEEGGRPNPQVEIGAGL
Sequence of V1 (A3B3DF), the soluble subcomplex of TtATPase without peripheral stalks (Thermus thermophilus strain HB8) (P74903 whole entry, chain 4 of 4, further chain): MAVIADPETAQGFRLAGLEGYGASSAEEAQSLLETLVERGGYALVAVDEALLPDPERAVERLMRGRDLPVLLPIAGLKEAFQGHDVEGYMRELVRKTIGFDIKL

“peripheral EG stalk of TtATPase (from UniProt P74901 1-188) (complex)” was tested, and the stoichiometry N was 2.
